Test results from paper PMC6668440, “A one-gate elevator mechanism for the human neutral amino acid transporter ASCT2” (Nature Communications, 2019).
Positions count from the first letter of the chain named. In names and notes the source's numbering stands.

B1: human Alanine Serine Cysteine Transporter 2 with the C467R mutation (ASCT2_(C467R)) (natural protein)
chain: MVADPPRDSKGLAAAEPTANGGLALASIEDQGAAAGGYCGSRDQVRRCLRANLLVLLTVVAVVAGVALGLGVSGAGGALALGPERLSAFVFPGELLLRLLRMIILPLVVCSLIGGAASLDPGALGRLGAWALLFFLVTTLLASALGVGLALALQPGAASAAINASVGAAGSAENAPSKEVLDSFLDLARNIFPSNLVSAAFRSYSTTYEERNITGTRVKVPVGQEVEGMNILGLVVFAIVFGVALRKLGPEGELLIRFFNSFNEATMVLVSWIMWYAPVGIMFLVAGKIVEMEDVGLLFARLGKYILCCLLGHAIHGLLVLPLIYFLFTRKNPYRFLWGIVTPLATAFGTSSSSATLPLMMKCVEENNGVAKHISRFILPIGATVNMDGAALFQCVAAVFIAQLSQQSLDFVKIITILVTATASSVGAAGIPAGGVLTLAIILEAVNLPVDHISLILAVDWLVDRSRTVLNVEGDALGAGLLQNYVDRTESRSTEPELIQVKSELPLDPLPVPTEEGNPLLKHYRGPAGDATVASEKESVM
notes: human ASCT2 (SLC1A5), codon optimised gene on the pPICZ-A plasmid, with the single point mutation C467R; residues 43-159 and 177-489 were modelled in the map; Homotrimer (172 kDa) in DDM + CHS micelles; the tag and the limits are not described here; also called SLC1A5 C467R; source: Pichia pastoris X-33, purified (DDM/CHS solubilisation, Ni2+-Sepharose, Superdex 200 SEC)
B2: human Alanine Serine Cysteine Transporter 2, wild type (ASCT2wt) (natural protein)
chain: B1 chain with R467C
notes: human ASCT2 (SLC1A5), codon optimised gene on the pPICZ-A plasmid; Only a map (6.98 Å, C3 imposed) was deposited, no model; also called SLC1A5

Molecular target: the molecule itself
Test: cryo-EM structure; single particle cryo-EM of the purified transporter in mixed DDM + CHS micelles (20 mM Tris-HCl pH 7.4, 300 mM NaCl); ASCT2_(C467R) with 1 mM DL-TBOA and without inhibitor, ASCT2wt without substrate; C3 symmetry imposed, classifications without symmetry also done

| Protein | stoichiometry N | binding result |
| --- | --- | --- |
| B1 | 3 | – |
| B2 | – | binds |
